According to publication PMC3439491:

Target: MA-MADS5 full length (A) (Musa acuminata (AAA group, Cavendish subgroup, cv. Giant governor)) (UniProt E9NW24)
Experiment: EMSA saturation
Details: EMSA with 2 ug recombinant protein or 15 ug nuclear extract, buffer by reference to earlier work; circularization pre-incubation: 60 mM KCl, 8 mM HEPES pH 7.9 …

MA-MADS5 full length (A) (Musa acuminata (AAA group, Cavendish subgroup, cv. Giant governor)), sequence (E9NW24 entry or part of it): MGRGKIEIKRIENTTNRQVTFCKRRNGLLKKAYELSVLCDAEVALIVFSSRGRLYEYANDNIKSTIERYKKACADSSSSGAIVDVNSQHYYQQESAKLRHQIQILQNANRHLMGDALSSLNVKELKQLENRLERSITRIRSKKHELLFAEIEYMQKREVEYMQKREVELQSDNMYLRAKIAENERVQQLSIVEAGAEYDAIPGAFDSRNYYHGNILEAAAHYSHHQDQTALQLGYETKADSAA

c-fos SRE, pAS76 EcoRV fragment
Kd: 10.6 nM
